According to PMC6234985 (Cell, 2018):
Read-outs that look alike come from different tables or passages of the source.

Columns and labels:
Karyopherin-β2 (Kapβ2) = target: T1, Karyopherin-β2 (Kapβ2) (human, UniProt Q92973-2 1-890); assay: ITC
T1 sequence: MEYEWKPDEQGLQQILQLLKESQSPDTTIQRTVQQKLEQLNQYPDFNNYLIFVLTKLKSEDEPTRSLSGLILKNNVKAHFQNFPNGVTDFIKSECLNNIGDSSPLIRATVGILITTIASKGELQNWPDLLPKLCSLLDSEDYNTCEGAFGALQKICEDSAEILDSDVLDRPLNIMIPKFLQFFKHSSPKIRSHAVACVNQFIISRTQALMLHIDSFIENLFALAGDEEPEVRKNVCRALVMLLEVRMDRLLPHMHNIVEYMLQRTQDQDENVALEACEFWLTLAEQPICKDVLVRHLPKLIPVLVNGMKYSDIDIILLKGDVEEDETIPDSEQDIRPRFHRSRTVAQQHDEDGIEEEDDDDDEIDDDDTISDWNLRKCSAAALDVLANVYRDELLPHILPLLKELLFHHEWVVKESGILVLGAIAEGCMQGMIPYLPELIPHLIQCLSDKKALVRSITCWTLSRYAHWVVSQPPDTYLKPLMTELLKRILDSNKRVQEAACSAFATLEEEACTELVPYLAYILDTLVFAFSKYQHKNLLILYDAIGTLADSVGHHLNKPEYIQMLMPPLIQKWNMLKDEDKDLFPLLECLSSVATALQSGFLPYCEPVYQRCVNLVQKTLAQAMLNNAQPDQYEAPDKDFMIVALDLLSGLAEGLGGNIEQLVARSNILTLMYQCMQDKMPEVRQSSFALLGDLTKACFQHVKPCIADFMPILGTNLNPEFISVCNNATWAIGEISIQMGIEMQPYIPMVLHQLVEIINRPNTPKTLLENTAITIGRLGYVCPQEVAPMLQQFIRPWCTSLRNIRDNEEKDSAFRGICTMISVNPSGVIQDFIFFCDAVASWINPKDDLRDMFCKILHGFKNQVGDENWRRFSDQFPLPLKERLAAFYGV

FUS(456–526) = target: T2, FUS(456–526) (UniProt P35637 456-526); assay: crystal structure
T2 sequence (looked up): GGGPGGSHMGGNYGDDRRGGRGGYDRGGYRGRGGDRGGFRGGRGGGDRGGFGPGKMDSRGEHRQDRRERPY

[1] = target: T3, FUS (full-length), MBP removed with Tev protease (UniProt P35637 1-526); assay: crystal structure
T3 sequence (looked up): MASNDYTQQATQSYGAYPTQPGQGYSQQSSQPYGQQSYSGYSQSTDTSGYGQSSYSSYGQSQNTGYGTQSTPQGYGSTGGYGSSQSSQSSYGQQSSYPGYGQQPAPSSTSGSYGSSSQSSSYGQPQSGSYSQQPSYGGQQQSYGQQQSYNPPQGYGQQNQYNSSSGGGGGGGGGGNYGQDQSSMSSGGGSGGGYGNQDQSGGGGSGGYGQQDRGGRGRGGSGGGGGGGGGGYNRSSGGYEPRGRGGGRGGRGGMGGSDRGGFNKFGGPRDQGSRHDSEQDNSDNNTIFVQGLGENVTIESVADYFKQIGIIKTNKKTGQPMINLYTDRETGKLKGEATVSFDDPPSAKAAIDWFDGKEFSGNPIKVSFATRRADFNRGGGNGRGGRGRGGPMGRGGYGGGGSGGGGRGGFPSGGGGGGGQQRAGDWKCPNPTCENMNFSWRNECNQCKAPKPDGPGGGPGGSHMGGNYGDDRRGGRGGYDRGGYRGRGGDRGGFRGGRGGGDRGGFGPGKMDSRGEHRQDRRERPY

FUS(371–526) = target: T4, FUS(371–526) (UniProt P35637 371-526); assay: crystal structure
T4 sequence (looked up): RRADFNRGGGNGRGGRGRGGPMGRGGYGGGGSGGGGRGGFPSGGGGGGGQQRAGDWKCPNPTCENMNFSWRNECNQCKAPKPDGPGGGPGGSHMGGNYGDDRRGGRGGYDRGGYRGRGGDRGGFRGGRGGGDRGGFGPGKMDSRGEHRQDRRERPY

GST-CRM1 = GST-CRM1 (human, UniProt O14980 1-1071); assay: pull-down
MBP-FUS [2] = target: T5, MBP-FUS (UniProt P35637 1-526); assay: gel filtration co-elution
MBP-FUS [3] = target: T5, MBP-FUS; assay: gel filtration co-elution; remark: listed apart in the source

Chain of GST-CRM1 (O14980 whole entry): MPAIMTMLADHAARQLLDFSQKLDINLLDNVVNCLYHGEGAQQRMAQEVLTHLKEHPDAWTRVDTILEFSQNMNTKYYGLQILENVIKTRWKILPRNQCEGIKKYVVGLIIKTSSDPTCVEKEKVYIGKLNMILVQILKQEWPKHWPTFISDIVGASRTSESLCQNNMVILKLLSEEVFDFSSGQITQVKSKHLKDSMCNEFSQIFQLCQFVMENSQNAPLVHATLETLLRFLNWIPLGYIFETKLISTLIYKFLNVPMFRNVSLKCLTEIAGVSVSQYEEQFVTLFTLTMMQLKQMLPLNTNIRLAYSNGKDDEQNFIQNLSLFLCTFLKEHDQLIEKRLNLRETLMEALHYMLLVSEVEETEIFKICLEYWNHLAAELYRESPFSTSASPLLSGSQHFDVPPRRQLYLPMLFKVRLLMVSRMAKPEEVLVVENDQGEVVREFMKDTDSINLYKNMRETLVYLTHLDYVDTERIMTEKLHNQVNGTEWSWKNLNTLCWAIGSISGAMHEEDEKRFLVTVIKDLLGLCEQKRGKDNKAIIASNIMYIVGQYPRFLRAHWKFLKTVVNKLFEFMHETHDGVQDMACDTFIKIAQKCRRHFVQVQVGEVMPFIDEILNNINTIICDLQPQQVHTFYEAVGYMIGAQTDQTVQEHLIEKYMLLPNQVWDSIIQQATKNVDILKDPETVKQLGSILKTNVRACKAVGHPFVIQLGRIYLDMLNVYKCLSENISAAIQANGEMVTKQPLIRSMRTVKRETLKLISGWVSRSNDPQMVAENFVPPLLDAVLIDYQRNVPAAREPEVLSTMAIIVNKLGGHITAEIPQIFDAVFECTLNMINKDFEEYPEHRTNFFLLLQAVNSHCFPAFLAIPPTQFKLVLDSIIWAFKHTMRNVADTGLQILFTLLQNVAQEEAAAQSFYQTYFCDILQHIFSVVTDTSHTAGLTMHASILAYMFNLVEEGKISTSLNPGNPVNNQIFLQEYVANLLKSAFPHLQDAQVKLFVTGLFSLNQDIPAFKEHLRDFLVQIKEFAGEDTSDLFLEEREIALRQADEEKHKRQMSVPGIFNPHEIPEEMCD

B1: MBP-FUS(453–526) (domain or fragment, UniProt P35637 453-526, looked up)
chain: DGPGGGPGGSHMGGNYGDDRRGGRGGYDRGGYRGRGGDRGGFRGGRGGGDRGGFGPGKMDSRGEHRQDRRERPY
B1: binds (Karyopherin-β2 (Kapβ2)).

B2: Kapβ2Δloop (residues 337–367 replaced with a GGSGGSG linker) (natural protein, human)
chain: MEYEWKPDEQGLQQILQLLKESQSPDTTIQRTVQQKLEQLNQYPDFNNYLIFVLTKLKSEDEPTRSLSGLILKNNVKAHFQNFPNGVTDFIKSECLNNIGDSSPLIRATVGILITTIASKGELQNWPDLLPKLCSLLDSEDYNTCEGAFGALQKICEDSAEILDSDVLDRPLNIMIPKFLQFFKHSSPKIRSHAVACVNQFIISRTQALMLHIDSFIENLFALAGDEEPEVRKNVCRALVMLLEVRMDRLLPHMHNIVEYMLQRTQDQDENVALEACEFWLTLAEQPICKDVLVRHLPKLIPVLVNGMKYSDIDIILLKGDVEEDETIPDSEQDIRGGSGGSGDTISDWNLRKCSAAALDVLANVYRDELLPHILPLLKELLFHHEWVVKESGILVLGAIAEGCMQGMIPYLPELIPHLIQCLSDKKALVRSITCWTLSRYAHWVVSQPPDTYLKPLMTELLKRILDSNKRVQEAACSAFATLEEEACTELVPYLAYILDTLVFAFSKYQHKNLLILYDAIGTLADSVGHHLNKPEYIQMLMPPLIQKWNMLKDEDKDLFPLLECLSSVATALQSGFLPYCEPVYQRCVNLVQKTLAQAMLNNAQPDQYEAPDKDFMIVALDLLSGLAEGLGGNIEQLVARSNILTLMYQCMQDKMPEVRQSSFALLGDLTKACFQHVKPCIADFMPILGTNLNPEFISVCNNATWAIGEISIQMGIEMQPYIPMVLHQLVEIINRPNTPKTLLENTAITIGRLGYVCPQEVAPMLQQFIRPWCTSLRNIRDNEEKDSAFRGICTMISVNPSGVIQDFIFFCDAVASWINPKDDLRDMFCKILHGFKNQVGDENWRRFSDQFPLPLKERLAAFYGV
B2: binds (FUS(456–526)); binds [1]; binds (FUS(371–526)).

B3: MBP-FUS(NES) chimera (PY-NLS replaced with the NES from the NS2 protein of MVM virus) (other)
chain: MASNDYTQQATQSYGAYPTQPGQGYSQQSSQPYGQQSYSGYSQSTDTSGYGQSSYSSYGQSQNTGYGTQSTPQGYGSTGGYGSSQSSQSSYGQQSSYPGYGQQPAPSSTSGSYGSSSQSSSYGQPQSGSYSQQPSYGGQQQSYGQQQSYNPPQGYGQQNQYNSSSGGGGGGGGGGNYGQDQSSMSSGGGSGGGYGNQDQSGGGGSGGYGQQDRGGRGRGGSGGGGGGGGGGYNRSSGGYEPRGRGGGRGGRGGMGGSDRGGFNKFGGPRDQGSRHDSEQDNSDNNTIFVQGLGENVTIESVADYFKQIGIIKTNKKTGQPMINLYTDRETGKLKGEATVSFDDPPSAKAAIDWFDGKEFSGNPIKVSFATRRADFNRGGGNGRGGRGRGGPMGRGGYGGGGSGGGGRGGFPSGGGGGGGQQRAGDWKCPNPTCENMNFSWRNECNQCKAPKPDGPGGGPGGSHMGGNYGDDRRGGRGGYDRGGYRGRGGDRGGFRGGRGGYSTVDEMTKKFGTLTIH
B3: binds (GST-CRM1).

B4: TERRA RNA (structured_RNA)
RNA: UUAGGGUUAGGGUUAGGGUUAGGG
B4: binds (MBP-FUS [2]).

B5: prD (DNMT) RNA (ssRNA)
RNA: AUUGAGGAGCAGCAGAGAAGUUGGAGUGAAGGCAGAGAGGGGUUAAGG
B5: binds (MBP-FUS [3]).

B6: MBP-FUS(371–526) (domain or fragment, UniProt P35637 371-526, looked up)
chain: RRADFNRGGGNGRGGRGRGGPMGRGGYGGGGSGGGGRGGFPSGGGGGGGQQRAGDWKCPNPTCENMNFSWRNECNQCKAPKPDGPGGGPGGSHMGGNYGDDRRGGRGGYDRGGYRGRGGDRGGFRGGRGGGDRGGFGPGKMDSRGEHRQDRRERPY
B6: binds (Karyopherin-β2 (Kapβ2)).
